Assay results reported in publication doi:10.1101/2022.05.24.493195 (bioRxiv, 2022).

Target: T161 phosphorylated CDK1 (full-length human CDK1) (human, UniProt P06493 1-297, phosphothreonine at T161)
Experiment: SEC

binding result: binds
B1: Human cyclin B1, residues 165-433 carrying the C167S/C238S/C350S mutations (domain or fragment)
chain: NLSSEYVKDIYAYLRQLEEEQAVRPKYLLGREVTGNMRAILIDWLVQVQMKFRLLQETMYMTVSIIDRFMQNNSVPKKMLQLVGVTAMFIASKYEEMYPPEIGDFAFVTDNTYTKHQIRQMEMKILRALNFGLGRPLPLHFLRRASKIGEVDVEQHTLAKYLMELTMLDYDMVHFPPSQIAAGAFSLALKILDNGEWTPTLQHYLSYTEESLLPVMQHLAKNVVMVNQGLTKHMTVKNKYATSKHAKISTLPQLNSALVQDLAKAVAKV
